The RNAGym collection of RNA variant scans (doi:10.1073/pnas.2313332121)
This sample holds only a part of the variants without activity.

B1: TPR 5TU (parent)
chain: GGAUCUUCUCGAUCUAACAAAAAAGACAAAUCUGCCACAAAGCUUGAGAGCAUCUUCGGAUGCAGAGGCGGCAGCCUUCGGUGGCGCGAUAGCGCCAACGUUCUCAACUAUGACACGCAAAACGCGUGCUCCGUUGAAUGGAGUUUAUCAUG

Variants of: B1
Assay: polymerase ribozyme fitness, log enrichment relative to wild type (log ratio); higher = more active; in vitro selection for triplet polymerase activity
Procedure, shortened: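 A single round of triplicate in vitro selection, including frozen incubation at −7 °C, was applied to PCR-built, transcribed mutant libraries of each subunit of a heterodimeric triplet polymerase ribozyme. Illumina sequencing of input and output libraries retained genotypes with ≥10 input reads and ≥1 read per output. Fitness is the base-2 logarithm of genotype enrichment divided by wild-type enrichment, from inverse-variance-weighted replicate averages.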

Polymerase ribozyme fitness (log ratio), -0.866:
GGAUCUUCUCGAUCUAACAAAAAAGACAAAACUGCCACAAAGCUUGAGAGCAACUUCGGAUGCAGAGGCGGCAGCCUUCGGUGGCGCGAUAGCGUCAACGUUCUCAACUAUGACACGCGAAACGCGUGCUCCGUUGAAUGGAGUUUAUCAUG [U31A U53A C95U A119G]

Polymerase ribozyme fitness (log ratio), 0.137:
GGAUCUUCUCGAUCUAACAAAAAAGACAAAACUGCCACAAAGCUUGAGAGCAUCUUCGGAUGCAGAGGCGGCAGCCUUCGGUGGCGCGAUAGCGCCAACGUUCUCAACUAUGACACGCAAAACGCGUGCUCCGUUGAAUGGAGAUUAUCAUG [U31A U144A]

Polymerase ribozyme fitness (log ratio), -1.37:
GGAUCUUCUCGAUCUAACAAAAAAGACAAAACUGCCACAAAGCUUGAGAGCAUCUACGGAUGCAGAGGCGGCAGCCUUCGGUGGCGCGAUAGCGCCAACGUUCUCAACUAUGACACGCAAAACGCGCGCUCCGUUGAAUGGAGUUUAUCAUG [U31A U56A U127C]

Polymerase ribozyme fitness (log ratio), ≤ -4.2:
GGAUCUUCUCGAUCUAACAAAAAAGACAAAACUGCCACAAAGCUUGAGAGCAUCUUCGGAUGCAGAGGCGGCAGCCUUCGGUGGCGCAAAAGCGCCAACGUUCUCAACUAUGACACGCAAAACGCGUGCUCCAUUGAAUGGAGUUUAUCAUG [U31A G88A U90A G133A]
GGAUCUUCUCGAUCUAACAAAAAAGACAAACCUGCCACCAAGCUUGAGAGCAUCUUAGGAUGCAGAGGCGGCAGCGUUCGGUGGCGCGAUAGCGGCAACGUUCUCAACUAUGACACGCAAAACGCGUGCUUCGUUGAAUGGAGGUUAUCAUG [U31C A39C C57A C76G C95G C131U U144G]
GGAUCUUCUCGAUCUAACAAAAAAGACAAAACUGCCACAAAGCUUGAGAGCAACUUCGGAUGCAGAGUCGGCAGCCUUCGGUGGCGCGAUAGCGACAACGUUCUCAACUAUGACACGCAAAACGCGUGCUCCGUUGAAUGGAGUUUAUGAUG [U31A U53A G68U C95A C149G]
GGAUCUUCUCGAUCUAACAAAAAAGACAAAACUGCCACAAAGCUUGAGAGCAUCUUCGGAUGCAUAGGCGGCAGCCUUCGGUGGCGCGAUAGGGCCAACGUUCUCAACUAUGACACGCAAAACGCGUGCUCCGUCGAAUGGAGUUUAUCAUG [U31A G65U C93G U135C]
GGAUCUUCUCGAUCUAACAAAAAAGACAAAACUGCCACAAAGCUUGAGAGCAUCUUCGCAUGCAGAGGCGGCAGUCUUCGGUGGCGCGAUUGCGCCAACGUUCUCAACGAUAACACGCAAAACGCGUGCUCCGUUGAAUGGAGUUUAUCAUG [U31A G59C C75U A91U U109G G112A]
GGAUCUUCUCGAUCUAACAAAAAAGACAAAACUGCCACAAAGCUAGAGAGCAUCUUCGGAUGCAGAGGCGGCAGCUUUCGGUGGUGCGAUAGUGCCAACGUUCUCAACUAUGACACGCAAAACGCGUGCUCCGUUUAAUGGAGUUUAUCCUG [U31A U45A C76U C85U C93U G136U A150C]
GGAUCUUCUCGAUCUAACAAAAAAGACAAAACUGCCACAAAGCUUGAGAGCAUCUUCGGAUGCAGAGGCGGCAGCCUUCGGUGGCGCGAGAGCGCCAACGUUCUCAACUAUGACACGCAAAACGCGUGCUCCGUUGAAUGGAGUUUAUCAUG [U31A U90G]
GGAUCUUCUCGAUCUAACAAAAAAGACAAAACUGCCACAAAGCUUGAGAAGAUCUUCGAAUGCAGAGCCGGCAGCCUUCGGUGGCCCGAUAGCUCCAACGUUCUCAACUAUGACACGCAAAACUCGUGCUCCGUUGAAUGGAGUUUAUCAUG [U31A G50A C51G G59A G68C G86C G94U G124U]
GGAUCUUCUCGAUCUAACAAAAAAGACAAAACUGCCACAAAGCAUGAGAGCAUCUUCGGAUGCAGAGACGGCAGCCUUCGAUGGCGCGAUAGCGCCAACGUUCGCAACUAUGACACGCAAAACGAGUGCUCCGUUGAAUGGAGUUUAUCAUG [U31A U44A G68A G81A U104G C125A]
GGAUCUUCUCGAUCUAACAAAAAAGACAAAACUGCCACAAAGCUUGAGAGCAUCUUCGGAUGCAGAGGCGGCAGCCUUCGGUGACGCGAUAGCGCCAACAUUCUCAAGUAUGACACGCAAAAGGCGUGCUCCGUUGAAUGGAGUUUAUCAUG [U31A G84A G100A C108G C123G]
GGAUCUUCUCGAUCUAACAAAAAAGACAAACCUGCCCCAAAGCUUGAGAGCAUCUUCGGAUGCAGAGGCGGCAGCCUUCGGUGGCGCGAUAGCGCCAACGUUCUCUCCUAUGACACGCAAAACGCGUGCUCCGUUGAAUGGAGUUUAUCAUG [U31C A37C A106U A107C]
GGAUCUUCUCGAUCUAACAAAAAAGACAAAACUGCCACAAAGCUUGAGAGCAUCUUCGGAUGCAGAGGCGGCAGCCUUCGCUGGCGCGAUAGCGCGAACGUUCUCAACUAAGACACGCAAAACGCAUGCUCCGUUGAAUGGAGUUUAUCAUG [U31A G81C C96G U111A G126A]
GGAUCUUCUCGAUCUAACAAAAAAGACAAAACUGCCACAAAGCUUGAGAGCAUCUUCGGAUGCAGAGGCGGCAGCCUUCGGUCGCGCGAUAGCGCCAACGUUCUUAACUAUGACACGCAAAACGCGGGCUCCAUUGCAUGGAGUUUAUCAUG [U31A G83C C105U U127G G133A A137C]
GGAUCUUCUCGAUCUAACAAAAAAGACAAAACUGCCACAAAGCAUGAGAGCCUCUUCGGAUGCAGAGGCGUCAGCCUUCGGUCGCACGAUAGCGCCCACGUUCACAACUAUGACACGCAAAACGCGUGCUCCGUUGAAUGGAGUUUAUCAUG [U31A U44A A52C G71U G83C G86A A97C U104A]
GGAUCUUCUCGAUCUAACAAAAAAGACAAAACUGCCACAAAGCUUGAGAGCAUCUUCCGAAGCAGAGGCGGCAGCCUUCGGUGGCGGGAUAGCGCUAAUGUUCUCAACUAUGAGACGCAAAACGCGUGCUCCGUUGAAUGGAGUUUAUCGUG [U31A G58C U61A C87G C96U C99U C114G A150G]
GGAUCUUCUCGAUCUAACAAAAAAGACAAAACUGCCACAAAGCUUGAGAGCAUCGUCGGAUGCAGAGGCGGCAGCCUUCGGUGGCGCGAUAGGGCCAACGUUCUCAACUCUGACUCGCAAAAGGCGUGCUCCGUUGAAUGGAGUUUAUCAUG [U31A U55G C93G A110C A115U C123G]
